Measurements: article PMC9900698, “Phosphorylation Regulation of a Histone-like HU Protein from Deinococcus radiodurans”
Where a chain is given by its changes, count along the chain named.

T1: DrHU T37A (Deinococcus radiodurans R1 (ATCC13939), UniProt Q9RZ89 1-122, T37A)
T1 sequence: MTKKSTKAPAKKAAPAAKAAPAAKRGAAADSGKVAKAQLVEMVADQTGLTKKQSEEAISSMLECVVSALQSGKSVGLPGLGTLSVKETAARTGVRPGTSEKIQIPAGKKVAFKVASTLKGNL

T2: DrHU T37E (Deinococcus radiodurans R1 (ATCC13939), UniProt Q9RZ89 1-122, T37E)
T2 sequence: T1 sequence with A37E

B1: Duplex DNA (36bp) (dsDNA)
DNA 1: GCAGAGTCAATTATGTCAATGACATAAAAGGCTCAG
DNA 2: CTGAGCCTTTTATGTCATTGACATAATTGACTCTGC
B2: Duplex DNA (48bp) (dsDNA)
DNA 1: TAACAAGCAGAGTCAATTATGTCAATGACATAAAAGGCTCAGGCCTTC
DNA 2: GAAGGCCTGAGCCTTTTATGTCATTGACATAATTGACTCTGCTTGTTA
B3: Duplex DNA (24bp) (dsDNA)
DNA 1: TCAATTATGTCAATGACATAAAAG
DNA 2: CTTTTATGTCATTGACATAATTGA

molecular target: T1, DrHU T37A; assay: EMSA; 10 mM Mg2+; EMSA: 50 mM NaCl, 20 mM Tris-HCl pH 8.0, 0.1 mg/ml BSA, 3 mM DTT, 0.1 mM EDTA, 10% glycerol, 10 mM MgCl2, 50 nM DNA, 0-3200 nM DrHU, room temperature 20 min; 22% native PAGE in 1x TB; conditions: protein: recombinant; tags: N-terminal His-MBP (pET28a-HMT), removed by TEV; chain copies: 2; label: 5'-FAM; blunt

Binder	binding result
B1	no binding
B2	no binding
B3	no binding

molecular target: T2, DrHU T37E; assay: as above; conditions: protein: recombinant; tags: N-terminal His-MBP (pET28a-HMT), removed by TEV; chain copies: 2; label: 5'-FAM; blunt

Binder	Kd [nM]
B1	457 ± 62.9
B2	389 ± 56
B3	1180 ± 95.9
